Stoichiometry N (αLA molecules per complete ring) and stoichiometry N (αLA per ADGroEL) data for 1 molecule are collected here from doi:10.1101/2023.11.28.569006.

The target in assay [1] is artificial chaperone ADGroEL_SacSm (complete heptameric ring) (not stated | Sulfolobus acidocaldarius). As to the kind of experiment: pull-down.
In assay [2] the target is hetero-oligomers with three or more ADGroEL_SacSm in their composition. As to the kind of experiment: pull-down.

B1: denatured alpha-Lactalbumin (αLA) (natural protein)
chain: EQLTKCEVFRELKDLKGYGGVSLPEWVCTTFHTSGYDTQAIVQNNDSTEYGLFQINNKIWCKDDQNPHSSNICNISCDKFLDDDLTDDIMCVKKILDKVGINYWLAHKALCSEKLDQWLCEKL
On to B1, for which, in assay [1], the stoichiometry N (αLA molecules per complete ring) amounted to 4. Further, the stoichiometry N (αLA per ADGroEL) in assay [2] stood at 0.5.
